Experimental data reported in publication PMC4273445 (eLife, 2014).

How the values were obtained:
Experiment in all cases: SPR
[1] = target: fHbp 2.P22 (N. meningitidis) (UniProt E6MV22)
[2] = target: fHbp V1.1 Ser286 to Ala (N. meningitidis)
[3] = target: fHbp V2.21 Ile (at V1 Ile273) to Ala (N. meningitidis)
[4] = target: fHbp V3.28 Gly (at V1 Glu109) to Ala (N. meningitidis)
[5] = target: fHbp V1.1 His313 to Ala (N. meningitidis)
[6] = target: fHbp V3.28 Ser (at V1 Gln193) to Ala (N. meningitidis)
[7] = target: fHbp V3.28 Thr (at V1 Ser185) to Ala (N. meningitidis)
[8] = target: factor H binding protein (fHbp) V2.21 (N. meningitidis) (UniProt E6MV22)
[9] = target: fHbp 1.P292 (N. meningitidis) (UniProt E6MV22)
[10] = target: fHbp V1.1 His203 to Ala (N. meningitidis)
[11] = target: fHbp V3.28 Ala (at V1 Pro265) to Pro (N. meningitidis)
[12] = target: fHbp V3.28 Val (at V1 Ile311) to Ala (N. meningitidis)
[13] = target: fHbp V1.1 Glu183 to Ala (N. meningitidis)
[14] = target: fHbp 1.P15 (N. meningitidis) (UniProt E6MV22)
[15] = target: fHbp V2.21 Lys (at V1 His184) to Ala (N. meningitidis)
[16] = target: fHbp V3.28 Ala (at V1 Glu157) to Glu (N. meningitidis)
[17] = target: fHbp 3.P84 (N. meningitidis) (UniProt E6MV22)
[18] = target: fHbp 1.P249 (N. meningitidis) (UniProt E6MV22)
[19] = target: fHbp V2.21 Lys (at V1 Lys92) to Ala (N. meningitidis)
[20] = target: fHbp V2.21 Ser (at V1 Ser104) to Ala (N. meningitidis)
[21] = target: fHbp V1.1 Ser288 to Ala (N. meningitidis)
[22] = target: fHbp V1.1 Lys191 to Ala (N. meningitidis)
[23] = target: fHbp V2.21 Leu (at V1 Leu156) to Ala (N. meningitidis)
[24] = target: fHbp 3.P47 (N. meningitidis) (UniProt E6MV22)
[25] = target: fHbp V2.21 Ala (at V1 Pro265) to Pro (N. meningitidis)
[26] = target: fHbp 2.P19 (N. meningitidis) (UniProt E6MV22)
[27] = target: fHbp V3.28 Asn (at V1 Asn108) to Ala (N. meningitidis)
[28] = target: fHbp V3.28 Asp (at V1 Asp150) to Ala (N. meningitidis)
[29] = target: fHbp V3.28 Lys (at V1 Lys306) to Ala (N. meningitidis)
[30] = target: fHbp V2.21 Glu (at V1 Glu157) to Ala (N. meningitidis)
[31] = target: fHbp V2.21 Thr (at V1 Glu304) to Ala (N. meningitidis)
[32] = target: fHbp V3.28 Phe (at V1 Phe194) to Ala (N. meningitidis)
[33] = target: fHbp V2.21 Ile (at V1 Ile147) to Ala (N. meningitidis)
[34] = target: fHbp V3.28 Gln (at V1 Arg145) to Ala (N. meningitidis)
[35] = target: fHbp V3.28 Glu (at V1 Asp262) to Ala (N. meningitidis)
[36] = target: fHbp V2.21 Ile (at V1 Ile179) to Ala (N. meningitidis)
[37] = target: fHbp V1.1 Leu156 to Ala (N. meningitidis)
[38] = target: fHbp V1.1 Ile196 to Ala (N. meningitidis)
[39] = target: fHbp V1.1 Lys268 to Ala (N. meningitidis)
[40] = target: fHbp V2.21 Glu (at V1 Glu109) to Ala (N. meningitidis)
[41] = target: fHbp V3.28 Asp (at V1 Gln103) to Ala (N. meningitidis)
[42] = target: fHbp V3.28 Leu (at V1 Leu156) to Ala (N. meningitidis)
[43] = target: fHbp V2.21 Ile (at V1 Ser185) to Ala (N. meningitidis)
[44] = target: fHbp V1.1 Ser274 to Ala (N. meningitidis)
[45] = target: fHbp V3.28 Pro (at V1 Ser182) to Ala (N. meningitidis)
[46] = target: fHbp V1.1 Pro265 to Ala (N. meningitidis)
[47] = target: fHbp V3.28 Gln (at V1 Lys191) to Ala (N. meningitidis)
[48] = target: fHbp V1.1 Ile147 to Ala (N. meningitidis)

CFH67, CCP domains 6 and 7 of complement factor H, sequence (P08603 321-443): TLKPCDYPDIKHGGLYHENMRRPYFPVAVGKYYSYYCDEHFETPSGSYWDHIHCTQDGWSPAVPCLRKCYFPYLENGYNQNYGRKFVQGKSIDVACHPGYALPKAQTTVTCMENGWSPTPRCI

CFHR3_(12), the first two (N-terminal) CCP domains of complement factor H-related 3 (from UniProt Q02985 19-330) (domain or fragment)
Kd [1]: 2.58 nM
Kd [2]: 93.6 nM
Kd [3]: 0.605 nM
Kd [4]: 1.96 nM
Kd [5]: 50.5 nM
Kd [6]: 3.03 nM
Kd [7]: 3.76 nM
Kd [8]: 3.73 nM
Kd [9]: 31.4 nM
Kd [10]: 32.6 nM
Kd [11]: 4.82 nM
Kd [12]: 36.3 nM
Kd [13]: 81 nM
Kd [14]: 56.4 nM
Kd [15]: 3.13 nM
Kd [16]: 4.35 nM
Kd [17]: 6.08 nM
Kd [18]: 32.3 nM
Kd [19]: 3.06 nM
Kd [20]: 4.91 nM
Kd [21]: 57.5 nM
Kd [22]: 91 nM
Kd [23]: 7.54 nM
Kd [24]: 1.64 nM
Kd [25]: 4.12 nM
Kd [26]: 2.11 nM
Kd [27]: 3.21 nM
Kd [28]: 3.77 nM
Kd [29]: 9.34 nM
Kd [30]: 2.74 nM
Kd [31]: 16.3 nM
Kd [32]: 5.15 nM
Kd [33]: 8.22 nM
Kd [34]: 0.434 nM
Kd [35]: 6.86 nM
Kd [36]: 7.84 nM
Kd [37]: 311 nM
Kd [38]: 35.2 nM
Kd [39]: 43 nM
Kd [40]: 4.62 nM
Kd [41]: 2.81 nM
Kd [42]: 51.9 nM
Kd [43]: 6.48 nM
Kd [44]: 43.5 nM
Kd [45]: 3.24 nM
Kd [46]: 130 nM
Kd [47]: 3.05 nM
Kd [48]: 174 nM

CFH67, CCP domains 6 and 7 of complement factor H (from UniProt P08603 321-443) (domain or fragment)
Kd [1]: 2.13 nM
Kd [2]: 11.3 nM
Kd [3]: 0.231 nM
Kd [4]: 2.82 nM
Kd [5]: 23.5 nM
Kd [6]: 4.14 nM
Kd [7]: 4.42 nM
Kd [8]: 1.87 nM
Kd [9]: 7.74 nM
Kd [10]: 1.8 nM
Kd [11]: 3.76 nM
Kd [12]: 30.3 nM
Kd [13]: 7.02 nM
Kd [14]: 11.7 nM
Kd [15]: 3.15 nM
Kd [16]: 37.5 nM
Kd [17]: 2.64 nM
Kd [18]: 5.36 nM
Kd [19]: 2.73 nM
Kd [20]: 2.52 nM
Kd [21]: 2.87 nM
Kd [22]: 6.4 nM
Kd [23]: 4.7 nM
Kd [24]: 0.514 nM
Kd [25]: 3.7 nM
Kd [26]: 1.91 nM
Kd [27]: 3.71 nM
Kd [28]: 4.4 nM
Kd [29]: 10.7 nM
Kd [30]: 0.401 nM
Kd [31]: 19.2 nM
Kd [32]: 4.25 nM
Kd [33]: 3.58 nM
Kd [34]: 0.621 nM
Kd [35]: 6.4 nM
Kd [36]: 12 nM
Kd [37]: 60.5 nM
Kd [38]: 1.07 nM
Kd [39]: 3.53 nM
Kd [40]: 2.34 nM
Kd [41]: 2.7 nM
Kd [42]: 28.8 nM
Kd [43]: 13.3 nM
Kd [44]: 11.3 nM
Kd [45]: 3.06 nM
Kd [46]: 3.62 nM
Kd [47]: 2.43 nM
Kd [48]: 17.3 nM
